Test results reported in patent US20240343823A1 (Ablynx, published 2024).
Like-named read-outs stand apart in the source and are kept apart here.

How the values were obtained:
Experiment in all cases: cell-based or functional assay
[1] = target: T1, human GPC3 on tumor cell lines (HepG2, Huh-7, NCI-H661, MKN-45, NCI-H23, BxPC-3, NCI-H292) (human, UniProt P51654 25-554)
[2] = target: T1, human GPC3 on tumor cell lines (HepG2, …); remark: listed apart in the source
[3] = target: T1, human GPC3 on tumor cell lines (HepG2, …); remark: listed apart in the source
[4] = target: T1, human GPC3 on tumor cell lines (HepG2, …); remark: listed apart in the source
[5] = target: T1, human GPC3 on tumor cell lines (HepG2, …); remark: listed apart in the source

B1: A022600105 (other)
chain: DVQLVESGGGVVQPGGSLRLSCVASGYVHKINFYGWYRQAPGKEREKVAHISIGDQTDYADSAKGRFTISRDESKNTVYLQMNSLRPEDTALYYCRALSRIWPYDYWGQGTLVTVSSGGGGSGGGGSGGGGSGGGGSEVQLVESGGGLVQPGGSLRLSCVASGFTFSSFAMTWVRRPPGKGLEWVATITNGGVTSYRDSVKGRFTISRDNAKNTLYLEMTSLNPEDTAVYICANARRTGPRAPTDIGSYRGQGTLVTVSSGGGGSGGGGSGGGGSGGGGSGGGGSGGGGSGGGGSEVQLVESGGGVVQPGGSLRLSCAASGFTFRSFGMSWVRQAPGKGPEWVSSISGSGSDTLYADSVKGRFTISRDNSKNTLYLQMNSLRPEDTALYYCTIGGSLSRSSQGTLVTVSSA
IC50 (M), Incucyte human TDC HepG2-Nuclight green assay [1]: 2.14e-09 M
Max % Killing, Incucyte human TDC HepG2-Nuclight green assay [1]: 85%

B2: A022600132 (other)
chain: DVQLVESGGGVVQPGGSLRLSCVASGYVHKINFYGWYRQAPGKEREKVAHISIGDQTDYADSAKGRFTISRDESKNTVYLQMNSLRPEDTALYYCRALSRIWPYDYWGQGTLVTVSSGGGGSEVQLVESGGGLVQPGGSLRLSCVASGFTFSSFAMTWVRRPPGKGLEWVATITNGGVTSYRDSVKGRFTISRDNAKNTLYLEMTSLNPEDTAVYICANARRTGPRAPTDIGSYRGQGTLVTVSSGGGGSGGGSEVQLVESGGGLVQPGGSLRLSCVASGSIFRSVFSSSTMEWYRQPPGKKRELVARIAPGDGTNYGALYADSVKGRFTISRDDAKKTVDLQMNSLKPEDTGVYFCASGVAWGQGTLVTVSSGGGGSGGGGSGGGGSGGGGSGGGGSGGGGSGGGGSEVQLVESGGGVVQPGGSLRLSCAASGFTFRSFGMSWVRQAPGKGPEWVSSISGSGSDTLYADSVKGRFTISRDNSKNTLYLQMNSLRPEDTALYYCTIGGSLSRSSQGTLVTVSSA
IC50 (M), Incucyte human TDC HepG2-Nuclight green assay [2]: 7.02e-10 M
Max % Killing, Incucyte human TDC HepG2-Nuclight green assay [2]: 91%
HepG2 on Incucyte IC50 [3]: 683 pM
HepG2 on Incucyte Max % killing [3]: 83%
Huh7 on xCELLigence IC50 [3]: 290 pM
Huh7 on xCELLigence Max % killing [3]: 95%

B3: A022600133 (other)
chain: DVQLVESGGGVVQPGGSLRLSCVASGYVHKINFYGWYRQAPGKEREKVAHISIGDQTDYADSAKGRFTISRDESKNTVYLQMNSLRPEDTALYYCRALSRIWPYDYWGQGTLVTVSSGGGGSEVQLVESGGGLVQPGGSLRLSCVASGSIFRSVFSSSTMEWYRQPPGKKRELVARIAPGDGTNYGALYADSVKGRFTISRDDAKKTVDLQMNSLKPEDTGVYFCASGVAWGQGTLVTVSSGGGGSGGGGSGGGGSGGGGSGGGGSGGGGSGGGGSEVQLVESGGGLVQPGGSLRLSCVASGFTFSSFAMTWVRRPPGKGLEWVATITNGGVTSYRDSVKGRFTISRDNAKNTLYLEMTSLNPEDTAVYICANARRTGPRAPTDIGSYRGQGTLVTVSSGGGGSGGGGSGGGGSGGGGSGGGGSGGGGSGGGGSEVQLVESGGGVVQPGGSLRLSCAASGFTFRSFGMSWVRQAPGKGPEWVSSISGSGSDTLYADSVKGRFTISRDNSKNTLYLQMNSLRPEDTALYYCTIGGSLSRSSQGTLVTVSSA
IC50 (M), Incucyte human TDC HepG2-Nuclight green assay [2]: 4.08e-10 M
Max % Killing, Incucyte human TDC HepG2-Nuclight green assay [2]: 92%

B4: A022600135 (other)
chain: DVQLVESGGGVVQPGGSLRLSCVASGYVHKINFYGWYRQAPGKEREKVAHISIGDQTDYADSAKGRFTISRDESKNTVYLQMNSLRPEDTALYYCRALSRIWPYDYWGQGTLVTVSSGGGGSEVQLVESGGGLVQPGGSLRLSCVASGSIFRSVFSSSTMEWYRQPPGKKRELVARIAPGDGTNYGALYADSVKGRFTISRDDAKKTVDLQMNSLKPEDTGVYFCASGVAWGQGTLVTVSSGGGGSGGGSEVQLVESGGGLVQPGGSLRLSCVASGFTFSSFAMTWVRRPPGKGLEWVATITNGGVTSYRDSVKGRFTISRDNAKNTLYLEMTSLNPEDTAVYICANARRTGPRAPTDIGSYRGQGTLVTVSSGGGGSGGGGSGGGGSGGGGSGGGGSGGGGSGGGGSEVQLVESGGGVVQPGGSLRLSCAASGFTFRSFGMSWVRQAPGKGPEWVSSISGSGSDTLYADSVKGRFTISRDNSKNTLYLQMNSLRPEDTALYYCTIGGSLSRSSQGTLVTVSSA
IC50 (M), Incucyte human TDC HepG2-Nuclight green assay [2]: 6.11e-10 M
Max % Killing, Incucyte human TDC HepG2-Nuclight green assay [2]: 91%

B5: A022600174 (other)
chain: DVQLVESGGGVVQPGGSLRLSCVASGYVHKINFYGWYRQAPGKEREKVAHISIGDQTDYADSAKGRFTISRDESKNTVYLQMNSLRPEDTAAYYCRALSRIWPYDYWGQGTLVTVSSGGGGSEVQLVESGGGLVQPGGSLRLSCVASGFTFSSFAMTWVRRPPGKGLEWVATITNGGVTSYRDSVKGRFTISRDNAKNTLYLEMTSLNPEDTAVYICANARRTGPRAPTDIGSYRGQGTLVTVSSGGGGSGGGSEVQLVESGGGLVQPGGSLRLSCVASGSIFRSVFSSSTMEWYRQPPGKKRELVARIAPGDGTNYGALYADSVKGRFTISRDDAKKTVDLQMNSLKPEDTGVYFCASGVAWGQGTLVTVSSGGGGSGGGSEVQLVESGGGVVQPGGSLRLSCAASGFTFRSFGMSWVRQAPGKGPEWVSSISGSGSDTLYADSVKGRFTISRDNSKNTLYLQMNSLRPEDTALYYCTIGGSLSRSSQGTLVTVSSA
HepG2 on Incucyte IC50 [4]: 673 pM
HepG2 on Incucyte Max % killing [4]: 96%
Huh7 on xCELLigence IC50 [4]: 62.6 pM
Huh7 on xCELLigence Max % killing [4]: 99%
HepG2 on Incucyte IC50 [5]: 673 pM
HepG2 on Incucyte Max % killing [5]: 96%
Huh7 on xCELLigence IC50 [5]: 62.6 pM
Huh7 on xCELLigence Max % killing [5]: 99%

B6: A022600104 (other)
chain: DVQLVESGGGVVQPGGSLRLSCVASGYVHKINFYGWYRQAPGKEREKVAHISIGDQTDYADSAKGRFTISRDESKNTVYLQMNSLRPEDTALYYCRALSRIWPYDYWGQGTLVTVSSGGGGSGGGSEVQLVESGGGLVQPGGSLRLSCVASGFTFSSFAMTWVRRPPGKGLEWVATITNGGVTSYRDSVKGRFTISRDNAKNTLYLEMTSLNPEDTAVYICANARRTGPRAPTDIGSYRGQGTLVTVSSGGGGSGGGGSGGGGSGGGGSGGGGSGGGGSGGGGSEVQLVESGGGVVQPGGSLRLSCAASGFTFRSFGMSWVRQAPGKGPEWVSSISGSGSDTLYADSVKGRFTISRDNSKNTLYLQMNSLRPEDTALYYCTIGGSLSRSSQGTLVTVSSA
IC50 (M), Incucyte human TDC HepG2-Nuclight green assay [1]: 2.13e-09 M
Max % Killing, Incucyte human TDC HepG2-Nuclight green assay [1]: 90%

B7: A022600134 (other)
chain: DVQLVESGGGVVQPGGSLRLSCVASGYVHKINFYGWYRQAPGKEREKVAHISIGDQTDYADSAKGRFTISRDESKNTVYLQMNSLRPEDTALYYCRALSRIWPYDYWGQGTLVTVSSGGGGSEVQLVESGGGLVQPGGSLRLSCVASGSIFRSVFSSSTMEWYRQPPGKKRELVARIAPGDGTNYGALYADSVKGRFTISRDDAKKTVDLQMNSLKPEDTGVYFCASGVAWGQGTLVTVSSGGGGSGGGGSGGGGSGGGGSEVQLVESGGGLVQPGGSLRLSCVASGFTFSSFAMTWVRRPPGKGLEWVATITNGGVTSYRDSVKGRFTISRDNAKNTLYLEMTSLNPEDTAVYICANARRTGPRAPTDIGSYRGQGTLVTVSSGGGGSGGGGSGGGGSGGGGSGGGGSGGGGSGGGGSEVQLVESGGGVVQPGGSLRLSCAASGFTFRSFGMSWVRQAPGKGPEWVSSISGSGSDTLYADSVKGRFTISRDNSKNTLYLQMNSLRPEDTALYYCTIGGSLSRSSQGTLVTVSSA
IC50 (M), Incucyte human TDC HepG2-Nuclight green assay [2]: 5.28e-10 M
Max % Killing, Incucyte human TDC HepG2-Nuclight green assay [2]: 92%

B8: A022600122 (other)
chain: DVQLVESGGGVVQPGGSLRLSCVASGYVHKINFYGWYRQAPGKEREKVAHISIGDQTDYADSAKGRFTISRDESKNTVYLQMNSLRPEDTALYYCRALSRIWPYDYWGQGTLVTVSSGGGGSEVQLVESGGGLVQPGGSLRLSCVASGFTFSSFAMTWVRRPPGKGLEWVATITNGGVTSYRDSVKGRFTISRDNAKNTLYLEMTSLNPEDTAVYICANARRTGPRAPTDIGSYRGQGTLVTVSSGGGGSGGGGSGGGGSGGGGSGGGGSGGGGSGGGGSEVQLVESGGGLVQPGGSLRLSCVASGSIFRSVFSSSTMEWYRQPPGKKRELVARIAPGDGTNYGALYADSVKGRFTISRDDAKKTVDLQMNSLKPEDTGVYFCASGVAWGQGTLVTVSSGGGGSGGGGSGGGGSGGGGSGGGGSGGGGSGGGGSEVQLVESGGGVVQPGGSLRLSCAASGFTFRSFGMSWVRQAPGKGPEWVSSISGSGSDTLYADSVKGRFTISRDNSKNTLYLQMNSLRPEDTALYYCTIGGSLSRSSQGTLVTVSSA
IC50 (M), Incucyte human TDC HepG2-Nuclight green assay [2]: 4.45e-10 M
Max % Killing, Incucyte human TDC HepG2-Nuclight green assay [2]: 92%
HepG2 on Incucyte IC50 [3]: 530 pM
HepG2 on Incucyte Max % killing [3]: 93%
Huh7 on xCELLigence IC50 [3]: 261 pM
Huh7 on xCELLigence Max % killing [3]: 101%

B9: A022600131 (other)
chain: DVQLVESGGGVVQPGGSLRLSCVASGYVHKINFYGWYRQAPGKEREKVAHISIGDQTDYADSAKGRFTISRDESKNTVYLQMNSLRPEDTALYYCRALSRIWPYDYWGQGTLVTVSSGGGGSEVQLVESGGGLVQPGGSLRLSCVASGFTFSSFAMTWVRRPPGKGLEWVATITNGGVTSYRDSVKGRFTISRDNAKNTLYLEMTSLNPEDTAVYICANARRTGPRAPTDIGSYRGQGTLVTVSSGGGGSGGGGSGGGGSGGGGSEVQLVESGGGLVQPGGSLRLSCVASGSIFRSVFSSSTMEWYRQPPGKKRELVARIAPGDGTNYGALYADSVKGRFTISRDDAKKTVDLQMNSLKPEDTGVYFCASGVAWGQGTLVTVSSGGGGSGGGGSGGGGSGGGGSGGGGSGGGGSGGGGSEVQLVESGGGVVQPGGSLRLSCAASGFTFRSFGMSWVRQAPGKGPEWVSSISGSGSDTLYADSVKGRFTISRDNSKNTLYLQMNSLRPEDTALYYCTIGGSLSRSSQGTLVTVSSA
IC50 (M), Incucyte human TDC HepG2-Nuclight green assay [2]: 4.44e-10 M
Max % Killing, Incucyte human TDC HepG2-Nuclight green assay [2]: 94%
